Patent publication US20220184172

How the values were obtained:
[1] = tested on: recombinant Caspase-6 (Origene, Cat. TP760261)
[2] = tested on: purified caspase-6-myc expressed in HEK293T cells
[3] = tested on: T1, recombinant Bid (R&D Systems, Cat. 846-BD-50)
T1 sequence: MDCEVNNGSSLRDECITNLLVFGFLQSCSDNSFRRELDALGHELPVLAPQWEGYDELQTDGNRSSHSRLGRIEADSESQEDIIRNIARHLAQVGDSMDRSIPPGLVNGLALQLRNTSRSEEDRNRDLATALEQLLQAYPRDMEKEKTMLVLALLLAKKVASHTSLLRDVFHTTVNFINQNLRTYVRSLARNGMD

[4] = tested on: purified Bid-HA expressed in HEK293T cells
[5] = tested on: purified Bax-HA expressed in HEK293T cells

Sequence of recombinant AMPKα1β1γ1 active kinase (Q13131 whole entry): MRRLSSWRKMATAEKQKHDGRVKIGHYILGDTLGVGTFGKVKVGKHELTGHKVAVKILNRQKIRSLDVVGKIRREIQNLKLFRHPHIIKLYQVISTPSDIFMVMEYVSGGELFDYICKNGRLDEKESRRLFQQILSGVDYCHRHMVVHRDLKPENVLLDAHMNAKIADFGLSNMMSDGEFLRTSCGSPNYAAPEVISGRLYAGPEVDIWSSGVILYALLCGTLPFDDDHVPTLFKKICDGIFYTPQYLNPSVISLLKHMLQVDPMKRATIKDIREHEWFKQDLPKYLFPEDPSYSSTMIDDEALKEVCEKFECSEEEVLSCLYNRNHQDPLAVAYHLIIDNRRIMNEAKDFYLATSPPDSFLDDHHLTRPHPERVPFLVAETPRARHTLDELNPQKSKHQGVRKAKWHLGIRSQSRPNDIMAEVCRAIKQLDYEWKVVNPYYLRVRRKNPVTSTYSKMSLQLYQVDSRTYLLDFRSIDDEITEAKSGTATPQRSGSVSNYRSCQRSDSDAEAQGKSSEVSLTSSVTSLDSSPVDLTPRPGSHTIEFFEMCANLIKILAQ
Sequence of recombinant AMPKα1β1γ1 active kinase (Q9Y478 2-270, further chain): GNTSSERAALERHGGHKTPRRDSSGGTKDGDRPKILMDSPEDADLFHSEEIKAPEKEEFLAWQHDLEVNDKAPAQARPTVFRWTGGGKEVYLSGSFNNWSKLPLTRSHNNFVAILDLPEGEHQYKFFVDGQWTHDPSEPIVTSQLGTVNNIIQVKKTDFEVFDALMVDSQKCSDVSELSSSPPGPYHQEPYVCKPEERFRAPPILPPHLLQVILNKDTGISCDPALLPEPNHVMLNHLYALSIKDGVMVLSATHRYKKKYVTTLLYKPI
Sequence of recombinant AMPKα1β1γ1 active kinase (P54619 whole entry, further chain): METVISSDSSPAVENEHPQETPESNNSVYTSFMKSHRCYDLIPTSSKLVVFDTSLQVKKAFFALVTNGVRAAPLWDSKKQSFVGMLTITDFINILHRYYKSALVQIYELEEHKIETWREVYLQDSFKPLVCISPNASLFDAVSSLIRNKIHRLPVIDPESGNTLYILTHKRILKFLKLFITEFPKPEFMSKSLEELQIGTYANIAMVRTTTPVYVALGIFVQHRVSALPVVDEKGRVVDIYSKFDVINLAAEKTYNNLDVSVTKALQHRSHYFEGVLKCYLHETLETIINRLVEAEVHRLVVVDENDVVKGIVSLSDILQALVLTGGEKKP
Sequence of recombinant AMPKα2β1γ1 active kinase (P54646 whole entry): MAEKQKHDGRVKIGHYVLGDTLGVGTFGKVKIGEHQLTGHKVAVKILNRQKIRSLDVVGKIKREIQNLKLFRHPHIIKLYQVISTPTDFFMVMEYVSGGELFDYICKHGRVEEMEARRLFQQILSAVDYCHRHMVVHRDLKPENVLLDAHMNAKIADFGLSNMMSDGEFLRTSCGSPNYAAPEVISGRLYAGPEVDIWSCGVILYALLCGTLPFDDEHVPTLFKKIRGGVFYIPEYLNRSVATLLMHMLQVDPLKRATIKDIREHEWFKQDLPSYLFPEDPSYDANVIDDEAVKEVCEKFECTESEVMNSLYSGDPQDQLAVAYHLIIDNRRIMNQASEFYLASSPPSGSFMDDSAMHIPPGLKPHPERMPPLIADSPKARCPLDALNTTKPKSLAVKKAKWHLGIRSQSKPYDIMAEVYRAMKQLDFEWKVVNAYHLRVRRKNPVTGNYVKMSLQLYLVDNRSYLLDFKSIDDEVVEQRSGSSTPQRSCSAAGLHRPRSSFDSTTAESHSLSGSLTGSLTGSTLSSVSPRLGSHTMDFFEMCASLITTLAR
Sequence of recombinant AMPKα2β1γ1 active kinase (Q9Y478 2-270, further chain): as the sequence (Q9Y478 2-270, further chain) above
Sequence of recombinant AMPKα2β1γ1 active kinase (P54619 whole entry, further chain): as the sequence (P54619 whole entry, further chain) above

In the case of active caspase-3, the “in vitro cleavage assay” value [1] is reported as “procaspase-6 was directly cleaved by caspase-3 and -7, but not caspase-8 or -9”.

In the case of recombinant AMPKα2β1γ1 active kinase, the “in vitro kinase assay, phosphorylation of Ser257” value [1] is reported as “Both recombinant AMPKα1 and AMPKα2 directly phosphorylated procaspase-6 at Ser^257 in vitro”.

recombinant AMPKα1β1γ1 active kinase was tested, and the “in vitro kinase assay, phosphorylation of Ser257 (FIG. 15C)” value [2] was “Both recombinant AMPKα1 and AMPKα2 directly phosphorylated procaspase-6 at Ser^257 in vitro” and the “in vitro kinase assay, phosphorylation of Ser257” value [1] was “Both recombinant AMPKα1 and AMPKα2 directly phosphorylated procaspase-6 at Ser^257 in vitro”.

With active caspase-8 the “in vitro cleavage assay” value [1] was “procaspase-6 was directly cleaved by caspase-3 and -7, but not caspase-8 or -9”.

In the case of active caspase-9, the “in vitro cleavage assay” value [1] is reported as “procaspase-6 was directly cleaved by caspase-3 and -7, but not caspase-8 or -9”.

For active caspase-6, the “in vitro cleavage assay” value [3] was “Active caspase-6 cleaves Bid to generate two cleaved peptide fragments”, the “in vitro cleavage assay” value [4] was “active caspase-6 cleaved purified Bcl2 family protein Bid (BH3 interacting-domain death agonist), but not Bax (Bcl2 associated X) in vitro” and the “in vitro cleavage assay” value [5] was “active caspase-6 cleaved purified Bcl2 family protein Bid (BH3 interacting-domain death agonist), but not Bax (Bcl2 associated X) in vitro”.

In the case of active caspase-7, the “in vitro cleavage assay” value [1] is reported as “procaspase-6 was directly cleaved by caspase-3 and -7, but not caspase-8 or -9”.
